Experimental data: US11319601B2, “Cell based assay” (Medical Diagnostic Laboratories, L.L.C., priority 2017, dated 2022)
Entries after “also recorded” stand apart in the source; their conditions may differ.

How the values were obtained:
Format in all cases: cell-based
wild-type HER2 receptor [1] = target: T1, wild-type HER2 receptor (Homo sapiens, UniProt P04626); assay: 6×JNK-Luc reporter in HEK293 DKO #27 cells transfected with HER2 and HER3 expression plasmids; settings: 6 hours
T1 construct: expressed in transfected cells
Description: In example 4, the generation double knockout cells (HEK293 DKO #27) of HER1 and HER2 receptors was described. No protein expression of HER1 and HER2 receptors was detected by immunoblot assays. In order to characterize whether these cells are desirable for use in the assay of the invention, 6×JNK-Luc was co-transfected with expression plasmids of HER3 and wild-type HER2 receptors. After 24 hours, the transfected cells were treated with a serial dilution of NRG1 (HER3 receptor ligand) for 6 hours. The luciferase reporter activity of the transfected cells was measured by Nano-Glo® Luciferase Assay (Promega).
In order to validate the requirement of HER2 receptor in the activation of 6×JNK-Luc reporter in response to NRG1 treatment, the DKO #27 cells were transfected with the wild-type HER2 and HER3 expression plasmids followed by treatment of HER2 inhibitors for 6 hours. The luciferase reporter activity of the treated cells was measured by Nano-Glo® Luciferase Assay (Promega). […]
In order to validate that this 6×JNK-Luc reporters has the capacity of measuring HER2 receptor activity, the reporters were co-transfected with expression plasmids of HER3 and wild-type, constitutively active or kinase-dead HER2 receptors into the DKO #27 cells. […] The luciferase reporter activity of the transfected cells was measured by Nano-Glo® Luciferase Assay (Promega). […]

wild-type HER2 receptor [2] = target: T1, wild-type HER2 receptor; assay: Clone #28 stable 6×JNK-Luc reporter cells with HER3 plasmid and HER2 linear expression cassette; settings: HER3 plasmid and HER2 linear expression DNA, 6 hours
Description: In the assay of the invention, expression of patient HER2 receptor is in the linear expression cassette format instead of plasmid DNA. Therefore, the clone #28 cells were transfected with HER3 expression plasmid and HER2 linear expression DNA. After 24 hours, the transfected cells were stimulated with a serial dilution of NRG1 for 6 hours. The luciferase reporter activity was measured. […] Therefore, this clone can be used to measure HER2 receptor activity by transfecting linear expression DNA of HER2.
In order to validate that the clone #28 cells was capable to measure the HER2 receptor activity, expression plasmids of HER3 were co-transfected with wild-type, constitutively active or kinase-dead HER2 receptors. […] The luciferase reporter activity of the transfected cells was measured by Nano-Glo® Luciferase Assay (Promega). […] However, no activation of reporter was detected when the cells were transfected with kinase-dead form of HER2 receptor.
In order to validate that the clone #28 reporter cells were capable of measuring the response of HER2 receptor to its inhibitors, these cells were first transfected with the HER2 linear expression DNA and HER3 expression plasmids followed by treatment of HER2 inhibitors for 6 hours in the presence of NRG1. The luciferase reporter activity of the treated cells was measured by Nano-Glo® Luciferase Assay (Promega). […]

L755S HER2 receptor = target: T2, L755S HER2 receptor (Homo sapiens, UniProt P04626, L755S); assay: HER2 reporter cells transfected with linear expression cassette of L755S HER2, all-in-one method
T2 construct: expressed in transfected cells; host or cells: HER2 reporter cells (clone #1)
Description: L755S corresponds to a missense mutation of HER2, which changes leucine (L) into serine (S) at amino acid position of 755. In order to functionally characterize this mutation, PCR-mediated overlapping extension was employed to construct linear expression cassette of HER2 carrying this mutation. The linear expression cassette of mutant HER2 DNA was first transfected into the reporter cells followed by treatment with NRG1 and its inhibitors using the “all-in-one” method. The luciferase reporter activity was measured 24 hours post-transfection.

P780ins HER2 receptor = target: T3, P780ins HER2 receptor (Homo sapiens, UniProt P04626, INS780GSP); assay: HER2 reporter cells transfected with linear expression cassette of P780ins HER2, all-in-one method; settings: all-in-one method
T3 construct: expressed in transfected cells; host or cells: HER2 reporter cells (clone #1)
Description: P780ins corresponds to an insertion mutation of HER2, which adds 3 amino acids (GSP) after the amino acid position of […] (Proline—P). In order to functionally characterize this mutation, PCR-mediated overlapping extension was employed to construct linear expression cassette of HER2 carrying this insertion. The linear expression cassette of mutant HER2 DNA was first transfected into the reporter cells followed by treatment with NRG1 and its inhibitors using the “all-in-one” method. The luciferase reporter activity was measured 24 hours post-transfection.

NRG1: neuregulin-1, HER3 receptor ligand
6×JNK-Luc reporter activation by ligand (wild-type HER2 receptor [1]): dose dependent activation; also recorded: activated | reporter activation by ligand (wild-type HER2 receptor [2]): dose dependent manner; also recorded: activated | response of mutant HER2 reporter activity to ligand (L755S HER2 receptor): responds to treatment | response of mutant HER2 reporter activity to ligand (P780ins HER2 receptor): independent
